Key:
[1] = biological target: Chaetomium thermophilum Las1 endoribonuclease (nuclease component of RNase PNK) (Chaetomium thermophilum); experiment: cryo-EM structure
[2] = biological target: T1, ScRNase PNK (Las1-Grc3 complex) (Saccharomyces cerevisiae, UniProt P36146;Q07845 1-502;1-632); experiment: ITC
T1 sequence 1: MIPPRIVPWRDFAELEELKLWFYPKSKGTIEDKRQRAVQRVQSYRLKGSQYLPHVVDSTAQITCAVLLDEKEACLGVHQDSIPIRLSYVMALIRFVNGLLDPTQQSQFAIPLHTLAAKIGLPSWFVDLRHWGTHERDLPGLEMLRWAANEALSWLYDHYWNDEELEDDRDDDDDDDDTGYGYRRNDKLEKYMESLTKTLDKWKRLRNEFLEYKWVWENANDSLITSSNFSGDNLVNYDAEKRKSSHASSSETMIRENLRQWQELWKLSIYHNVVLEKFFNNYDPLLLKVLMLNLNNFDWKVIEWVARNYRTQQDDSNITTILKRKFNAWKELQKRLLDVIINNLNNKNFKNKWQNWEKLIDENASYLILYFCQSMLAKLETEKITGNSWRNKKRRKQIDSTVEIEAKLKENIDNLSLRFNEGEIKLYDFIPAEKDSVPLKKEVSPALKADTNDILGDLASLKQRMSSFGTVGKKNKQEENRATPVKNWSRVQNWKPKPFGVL
T1 sequence 2: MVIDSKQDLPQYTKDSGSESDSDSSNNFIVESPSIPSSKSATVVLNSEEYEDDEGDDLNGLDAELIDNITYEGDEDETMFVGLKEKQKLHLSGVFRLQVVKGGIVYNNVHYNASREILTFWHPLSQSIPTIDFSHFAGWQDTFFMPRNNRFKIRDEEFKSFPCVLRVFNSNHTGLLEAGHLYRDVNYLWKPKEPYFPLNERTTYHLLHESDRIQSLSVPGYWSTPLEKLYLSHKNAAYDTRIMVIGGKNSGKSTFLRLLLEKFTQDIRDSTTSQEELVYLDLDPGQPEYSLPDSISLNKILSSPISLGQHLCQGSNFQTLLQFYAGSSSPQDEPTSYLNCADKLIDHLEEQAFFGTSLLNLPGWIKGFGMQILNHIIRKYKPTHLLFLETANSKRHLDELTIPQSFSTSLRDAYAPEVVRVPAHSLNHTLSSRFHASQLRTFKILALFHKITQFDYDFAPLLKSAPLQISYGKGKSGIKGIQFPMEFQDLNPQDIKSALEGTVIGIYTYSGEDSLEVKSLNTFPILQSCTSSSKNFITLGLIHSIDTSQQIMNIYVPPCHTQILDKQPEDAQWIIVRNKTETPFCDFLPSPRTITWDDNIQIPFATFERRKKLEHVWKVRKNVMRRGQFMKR

Chaetomium thermophilum Las1 endoribonuclease (nuclease component of RNase PNK) (enzyme)
stoichiometry N [1]: 2

ACGUACGCGGAAUACUUCGAA (ssRNA) [SS-RNA]
binding result [2]: binds

B1: SC-ITS2-cleaved-RNA (SC-ITS2-3-RNA annealed to SC-ITS2-5-RNA) (dsRNA)
RNA 1: GUCGUUUUA
RNA 2: GGUUUUACCAACUGCGGC
binding result [2]: binds
